{"source": "paper PMC10602884", "about": "“Distinct RPA functions promote eukaryotic DNA replication initiation and elongation”", "binders": {"B1": {"name": "6-FAM-oligo-dT60 (ssDNA)", "DNA": "TTTTTTTTTTTTTTTTTTTTTTTTTTTTTTTTTTTTTTTTTTTTTTTTTTTTTTTTTTTT"}, "B2": {"name": "6-FAM-oligo-dT30 (ssDNA)", "DNA": "TTTTTTTTTTTTTTTTTTTTTTTTTTTTTT"}}, "key": {"Pol-alpha/primase": {"target": "Pol-alpha/primase (UniProt P13382;P38121;P20457;P10363 1-1468;1-705;1-528;1-409)", "sequence (P13382 whole entry, chain 1 of 4)": "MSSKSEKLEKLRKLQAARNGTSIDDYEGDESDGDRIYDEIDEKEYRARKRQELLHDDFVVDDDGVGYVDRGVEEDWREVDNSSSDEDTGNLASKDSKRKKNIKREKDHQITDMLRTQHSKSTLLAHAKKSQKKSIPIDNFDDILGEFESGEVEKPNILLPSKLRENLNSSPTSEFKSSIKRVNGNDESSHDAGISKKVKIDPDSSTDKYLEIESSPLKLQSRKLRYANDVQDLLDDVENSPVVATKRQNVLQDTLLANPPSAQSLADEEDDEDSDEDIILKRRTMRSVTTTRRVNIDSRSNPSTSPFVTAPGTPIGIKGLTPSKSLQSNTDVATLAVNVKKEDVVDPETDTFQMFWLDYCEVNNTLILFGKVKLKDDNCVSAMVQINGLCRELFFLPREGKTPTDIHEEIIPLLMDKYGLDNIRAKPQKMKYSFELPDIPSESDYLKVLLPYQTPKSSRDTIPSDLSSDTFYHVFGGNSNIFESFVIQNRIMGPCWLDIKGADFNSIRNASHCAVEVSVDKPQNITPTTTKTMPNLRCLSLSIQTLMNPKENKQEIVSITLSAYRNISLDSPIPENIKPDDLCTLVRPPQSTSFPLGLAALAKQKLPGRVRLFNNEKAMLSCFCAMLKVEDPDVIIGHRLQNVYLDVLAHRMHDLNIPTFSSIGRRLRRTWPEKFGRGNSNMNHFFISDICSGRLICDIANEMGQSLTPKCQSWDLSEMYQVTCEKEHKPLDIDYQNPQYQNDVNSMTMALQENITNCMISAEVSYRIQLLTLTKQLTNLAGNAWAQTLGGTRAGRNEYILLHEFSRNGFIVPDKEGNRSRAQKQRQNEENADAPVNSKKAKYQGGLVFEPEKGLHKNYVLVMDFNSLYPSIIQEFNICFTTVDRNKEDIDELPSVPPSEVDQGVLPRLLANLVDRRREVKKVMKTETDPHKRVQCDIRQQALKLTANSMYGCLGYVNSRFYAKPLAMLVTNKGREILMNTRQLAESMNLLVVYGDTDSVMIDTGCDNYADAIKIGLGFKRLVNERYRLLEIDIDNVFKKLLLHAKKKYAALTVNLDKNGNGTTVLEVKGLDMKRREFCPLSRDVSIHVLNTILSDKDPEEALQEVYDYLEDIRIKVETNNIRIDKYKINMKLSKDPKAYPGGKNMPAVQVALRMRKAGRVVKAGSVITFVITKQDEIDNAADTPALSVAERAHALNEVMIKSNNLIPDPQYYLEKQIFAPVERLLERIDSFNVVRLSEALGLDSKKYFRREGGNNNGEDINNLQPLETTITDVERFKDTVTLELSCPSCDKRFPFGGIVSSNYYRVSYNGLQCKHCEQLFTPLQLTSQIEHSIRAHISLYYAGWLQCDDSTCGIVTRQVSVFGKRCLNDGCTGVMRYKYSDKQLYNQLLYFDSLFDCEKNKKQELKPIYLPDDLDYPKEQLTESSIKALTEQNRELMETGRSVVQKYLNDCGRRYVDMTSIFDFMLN", "sequence (P38121 whole entry, chain 2 of 4)": "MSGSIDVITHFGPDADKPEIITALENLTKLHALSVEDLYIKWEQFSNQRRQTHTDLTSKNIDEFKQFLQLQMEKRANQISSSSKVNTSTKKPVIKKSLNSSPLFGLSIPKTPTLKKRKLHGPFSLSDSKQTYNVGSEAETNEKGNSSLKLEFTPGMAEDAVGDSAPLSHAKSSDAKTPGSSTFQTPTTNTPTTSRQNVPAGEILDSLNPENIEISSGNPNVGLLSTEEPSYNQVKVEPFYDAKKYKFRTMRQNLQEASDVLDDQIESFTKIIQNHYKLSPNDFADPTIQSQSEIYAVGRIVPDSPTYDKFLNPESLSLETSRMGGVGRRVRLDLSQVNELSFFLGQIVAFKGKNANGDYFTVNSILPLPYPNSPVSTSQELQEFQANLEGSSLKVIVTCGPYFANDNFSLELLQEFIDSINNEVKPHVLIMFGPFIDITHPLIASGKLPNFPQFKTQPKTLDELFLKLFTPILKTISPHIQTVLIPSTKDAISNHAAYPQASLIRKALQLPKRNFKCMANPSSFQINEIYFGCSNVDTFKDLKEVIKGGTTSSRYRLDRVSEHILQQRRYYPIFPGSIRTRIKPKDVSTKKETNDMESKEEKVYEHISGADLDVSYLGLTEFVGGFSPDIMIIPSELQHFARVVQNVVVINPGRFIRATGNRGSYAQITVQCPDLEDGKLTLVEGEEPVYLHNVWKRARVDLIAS", "sequence (P20457 whole entry, chain 3 of 4)": "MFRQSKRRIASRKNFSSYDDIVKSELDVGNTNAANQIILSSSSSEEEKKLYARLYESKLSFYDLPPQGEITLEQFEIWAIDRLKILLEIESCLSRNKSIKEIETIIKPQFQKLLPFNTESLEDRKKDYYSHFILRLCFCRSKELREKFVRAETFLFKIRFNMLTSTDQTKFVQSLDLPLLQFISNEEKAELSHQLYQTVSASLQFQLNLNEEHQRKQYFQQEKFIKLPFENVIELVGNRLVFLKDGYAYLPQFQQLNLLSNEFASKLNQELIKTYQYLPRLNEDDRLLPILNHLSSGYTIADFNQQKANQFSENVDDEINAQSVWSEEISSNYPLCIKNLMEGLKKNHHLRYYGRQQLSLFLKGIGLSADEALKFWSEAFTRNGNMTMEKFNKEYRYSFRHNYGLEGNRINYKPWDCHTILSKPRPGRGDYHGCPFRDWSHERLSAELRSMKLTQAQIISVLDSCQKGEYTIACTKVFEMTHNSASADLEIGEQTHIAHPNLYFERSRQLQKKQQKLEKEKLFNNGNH", "sequence (P10363 whole entry, chain 4 of 4)": "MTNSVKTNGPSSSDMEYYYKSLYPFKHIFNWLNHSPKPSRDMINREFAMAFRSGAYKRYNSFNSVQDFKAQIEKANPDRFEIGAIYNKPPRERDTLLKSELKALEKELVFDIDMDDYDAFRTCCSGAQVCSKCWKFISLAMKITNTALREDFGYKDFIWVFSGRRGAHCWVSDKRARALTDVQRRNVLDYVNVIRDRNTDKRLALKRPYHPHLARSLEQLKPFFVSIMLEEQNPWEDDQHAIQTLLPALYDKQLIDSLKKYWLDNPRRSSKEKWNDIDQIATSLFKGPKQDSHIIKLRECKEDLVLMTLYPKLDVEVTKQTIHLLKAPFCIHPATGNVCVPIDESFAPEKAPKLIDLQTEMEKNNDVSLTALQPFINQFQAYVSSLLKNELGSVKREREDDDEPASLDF", "experiment": "fluorescence anisotropy; DNA pre-bound with equimolar (2.5 nM) RPA-deltaOB-F (P8); matches naked DNA; 30 mM HEPES pH 7.5, 30 mM NaCl, 0.25 mM EDTA, 10% glycerol, 0.01% NP-40, 1 mM DTT, plus 0.5 M NaCl for dT30 (no supplemental NaCl for dT60), 2.5 nM DNA, room temperature, 30 min", "settings": "protein: recombinant; copies: 1;1;1;1; label: 6-FAM; single strand"}, "Gp32": {"target": "T1, Gp32 (T4 bacteriophage, UniProt P03695 1-301)", "T1 sequence": "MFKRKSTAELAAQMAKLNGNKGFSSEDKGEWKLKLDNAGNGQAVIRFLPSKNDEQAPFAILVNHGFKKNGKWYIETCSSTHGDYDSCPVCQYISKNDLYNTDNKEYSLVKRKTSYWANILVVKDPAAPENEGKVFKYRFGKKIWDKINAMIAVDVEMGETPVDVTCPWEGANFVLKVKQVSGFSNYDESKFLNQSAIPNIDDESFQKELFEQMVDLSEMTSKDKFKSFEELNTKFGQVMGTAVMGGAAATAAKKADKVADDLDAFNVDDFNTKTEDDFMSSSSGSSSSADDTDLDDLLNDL", "experiment": "fluorescence anisotropy; 0.5 M NaCl; apparent Kd, Hill fit; 30 mM HEPES pH 7.5, 30 mM NaCl, 0.25 mM EDTA, 10% glycerol, 0.01% NP-40, 1 mM DTT, plus 0.5 M NaCl for dT30 (no supplemental NaCl for dT60), 2.5 nM DNA, room temperature, 30 min", "settings": "protein: commercial; label: 6-FAM; single strand"}, "RPA-deltaOB-F-deltaWH": {"target": "RPA-deltaOB-F-deltaWH (Saccharomyces cerevisiae, UniProt P22336;P26754;P26755 131-621;1-202;1-122)", "sequence (P22336 131-621, stated change not applied, chain 1 of 3)": "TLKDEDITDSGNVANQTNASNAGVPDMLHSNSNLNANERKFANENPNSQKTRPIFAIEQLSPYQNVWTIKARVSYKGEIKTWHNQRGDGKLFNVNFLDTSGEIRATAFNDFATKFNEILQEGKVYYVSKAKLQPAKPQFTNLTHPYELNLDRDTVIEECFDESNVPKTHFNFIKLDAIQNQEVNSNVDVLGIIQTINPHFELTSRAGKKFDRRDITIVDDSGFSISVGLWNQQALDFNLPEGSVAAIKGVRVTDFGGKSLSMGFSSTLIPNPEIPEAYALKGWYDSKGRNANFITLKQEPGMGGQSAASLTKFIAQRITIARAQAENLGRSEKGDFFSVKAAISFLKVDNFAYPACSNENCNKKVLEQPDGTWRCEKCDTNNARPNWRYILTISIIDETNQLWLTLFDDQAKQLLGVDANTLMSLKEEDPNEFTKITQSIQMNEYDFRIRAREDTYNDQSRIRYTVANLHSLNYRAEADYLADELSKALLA", "sequence (P26754 1-202, stated change not applied, chain 2 of 3)": "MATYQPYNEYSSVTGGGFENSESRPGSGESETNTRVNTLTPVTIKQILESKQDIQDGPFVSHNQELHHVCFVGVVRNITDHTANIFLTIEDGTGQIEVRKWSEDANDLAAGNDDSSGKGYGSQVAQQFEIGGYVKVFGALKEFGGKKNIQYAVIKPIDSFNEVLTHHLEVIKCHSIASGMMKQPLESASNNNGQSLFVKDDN", "sequence (P26755 whole entry, stated change not applied, chain 3 of 3)": "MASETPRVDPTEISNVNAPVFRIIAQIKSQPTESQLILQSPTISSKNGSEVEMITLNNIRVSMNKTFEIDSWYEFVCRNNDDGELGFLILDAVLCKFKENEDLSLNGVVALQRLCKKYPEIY", "experiment": "fluorescence anisotropy; 0.5 M NaCl; apparent Kd, Hill fit; 30 mM HEPES pH 7.5, 30 mM NaCl, 0.25 mM EDTA, 10% glycerol, 0.01% NP-40, 1 mM DTT, plus 0.5 M NaCl for dT30 (no supplemental NaCl for dT60), 2.5 nM DNA, room temperature, 30 min", "settings": "protein: recombinant; tags: CBP on Rfa1; 3xFlag on Rfa2; copies: 1;1;1; label: 6-FAM; single strand"}, "RPA-Tri-C (OB-C/D/E)": {"target": "RPA-Tri-C (OB-C/D/E) (Saccharomyces cerevisiae, UniProt P22336;P26754;P26755 442-621;32-182;1-122)", "sequence (P22336 442-621, chain 1 of 3)": "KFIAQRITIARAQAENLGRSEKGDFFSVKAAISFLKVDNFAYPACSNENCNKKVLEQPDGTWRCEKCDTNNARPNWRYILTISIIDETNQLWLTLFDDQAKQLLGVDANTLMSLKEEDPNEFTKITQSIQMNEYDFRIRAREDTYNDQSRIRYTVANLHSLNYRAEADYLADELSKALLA", "sequence (P26754 32-182, chain 2 of 3)": "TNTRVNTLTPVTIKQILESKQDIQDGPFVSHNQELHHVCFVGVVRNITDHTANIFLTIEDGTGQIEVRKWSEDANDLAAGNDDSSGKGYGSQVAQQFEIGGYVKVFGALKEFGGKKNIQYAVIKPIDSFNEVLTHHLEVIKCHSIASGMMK", "sequence (P26755 whole entry, chain 3 of 3)": "as the sequence (P26755 whole entry, stated change not applied, chain 3 of 3) above", "experiment": "fluorescence anisotropy; 0.5 M NaCl; apparent Kd, Hill fit; 30 mM HEPES pH 7.5, 30 mM NaCl, 0.25 mM EDTA, 10% glycerol, 0.01% NP-40, 1 mM DTT, plus 0.5 M NaCl for dT30 (no supplemental NaCl for dT60), 2.5 nM DNA, room temperature, 30 min", "settings": "protein: recombinant; tags: Rfa2 C-terminal MxeGyrA intein-CBD-6xHis (in expression construct); copies: 1;1;1; label: 6-FAM; single strand"}, "EcSSB": {"target": "EcSSB (Escherichia coli, UniProt P0AGE0 1-178)", "sequence (P0AGE0 whole entry)": "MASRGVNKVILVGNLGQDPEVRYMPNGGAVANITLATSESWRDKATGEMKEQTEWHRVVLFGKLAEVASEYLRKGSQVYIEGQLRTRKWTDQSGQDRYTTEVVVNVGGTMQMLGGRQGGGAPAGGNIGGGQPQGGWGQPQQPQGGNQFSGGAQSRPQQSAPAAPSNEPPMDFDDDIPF", "experiment": "fluorescence anisotropy; 0.5 M NaCl; apparent Kd, Hill fit; 30 mM HEPES pH 7.5, 30 mM NaCl, 0.25 mM EDTA, 10% glycerol, 0.01% NP-40, 1 mM DTT, plus 0.5 M NaCl for dT30 (no supplemental NaCl for dT60), 2.5 nM DNA, room temperature, 30 min", "settings": "protein: commercial; chain copies: 4; label: 6-FAM; single strand"}, "[1]": {"target": "RPA (CBP-Rfa1, Rfa2, Rfa3) (Saccharomyces cerevisiae, UniProt P22336;P26754;P26755 1-621;1-273;1-122)", "experiment": "fluorescence anisotropy; 0.5 M NaCl; apparent Kd, Hill coefficient 2.460; 30 mM HEPES pH 7.5, 30 mM NaCl, 0.25 mM EDTA, 10% glycerol, 0.01% NP-40, 1 mM DTT, plus 0.5 M NaCl for dT30 (no supplemental NaCl for dT60), 2.5 nM DNA, room temperature, 30 min", "settings": "protein: recombinant; tags: CBP on Rfa1; copies: 1;1;1; label: 6-FAM; single strand"}}, "data": [{"binder": "B1", "values": [{"measurement": "binding result", "setting": "Pol-alpha/primase", "value": "binds"}]}, {"binder": "B2", "values": [{"measurement": "Kd", "setting": "Gp32", "value": "~18", "unit": "nM"}, {"measurement": "Kd", "setting": "RPA-deltaOB-F-deltaWH", "value": "~2.04", "unit": "nM"}, {"measurement": "Kd", "setting": "RPA-Tri-C (OB-C/D/E)", "value": "~2.97", "unit": "nM"}, {"measurement": "Kd", "setting": "EcSSB", "value": "~0.11", "unit": "nM"}, {"measurement": "Kd", "setting": "[1]", "value": 1.73, "unit": "nM"}]}]}
